The source of these data is patent US9809645B2, “Anti-Staphylococcus antibody, method for manufacturing same, and usage of same” (priority 2013, dated 2017).

Counter-ions that a name gives are not always drawn.

Assay [1] relates to Staphylococcus aureus strain MW2. The experiment in a line: Community-acquired MRSA mouse pneumonia model, therapeutic. To be noted: 1 mg into tail vein three days after nasal infection with 4×10^8 cells MW2; lungs five days after infection; BALB/c mice; compared to PBS group; Wilcoxon rank sum test; FIGS. 10 and 11. It is filed as in vivo. As to the method:
The Staphylococcus aureus strain MW2 was nasally administered, at 4×10^8 cells/40 μL PBS, to female 7-week-old BALB/c mice to allow the bacteria to infect the lungs. Three days later, 0.2 mL of a test sample (PBS, 1 mg anti-Staphylococcus antibody, 1 mg mouse IgG, 1 mg vancomycin hydrochloride (VCM)) was administered into the tail veins.
Five days after the Staphylococcus aureus administration (two days after the test sample administration), the lungs were extirpated, homogenized, and the resulting suspensions were applied to mannitol salt agar plates. They were cultured for 36 hours at 37° C. The number of colonies that appeared was counted, and was used as the number of lung infecting bacteria.

Assay [2] has the same test system. The experiment in a line: Community-acquired MRSA mouse sepsis model. In kind it is in vivo. Particulars: 1 mg antibody intraperitoneal with 8×10^8 cells MW2; female BALB/c mice; compared to PBS-administered group; Fisher's exact test; FIGS. 4 and 5. As to the method: The Staphylococcus aureus strain MW2, at 8×10^8 cells/0.5 mL PBS, and 0.2 mL of a test substance (PBS, 1 mg anti-Staphylococcus antibody, 1 mg mouse IgG) were administered to the peritoneal cavities of female 7-week-old BALB/c mice, and the number of surviving mice was determined.

Assay [3] has the same test system. Kind of assay: Community-acquired MRSA mouse pneumonia model, preventive. To be noted: 1 mg into tail vein one hour before nasal infection with 4×10^8 cells MW2; lungs four days after infection; BALB/c mice; compared to PBS group; Wilcoxon rank sum test; FIGS. 8 and 9. It is filed as in vivo. As to the method: A 0.2 mL portion of a test sample (PBS, 1 mg anti-Staphylococcus antibody, 1 mg vancomycin hydrochloride (VCM)) was administered into the tail vein, and one hour after the administration, the Staphylococcus aureus strain MW2 was nasally administered at 4×10^8 cells/40 μL PBS to female 7-week-old BALB/c mice to infect the lungs. Four days after the infection, the lungs were extirpated, suspended using a homogenizer, applied to mannitol salt agar plates, and cultured for 36 hours at 37° C. The number of colonies that appeared was counted, and was defined as the number of lung infecting bacteria.

Assay [4] deals with Staphylococcus aureus strain VRS1. The experiment in a line: Highly vancomycin-resistant MRSA mouse sepsis model. It is filed as in vivo. Particulars: 1 mg antibody intraperitoneal with 2-3×10^9 cells VRS1; female BALB/c mice; compared to PBS-administered group and VCM-administered group; Fisher's exact test; FIG. 7. As to the method:
The Staphylococcus aureus strain VRS1, at 2-3×10^9 cells/0.5 mL PBS, and 0.2 mL of a test sample (PBS, 1 mg anti-Staphylococcus antibody, 1 mg mouse IgG, 1 mg vancomycin hydrochloride (VCM)) were administered to the peritoneal cavities of female 7-week-old BALB/c mice, and the number of surviving mice was determined.

Assay [5] concerns Staphylococcus aureus (protein A knock-out OS2 strain). Kind of assay: Staphylococcus aureus solid phase Cell-ELISA (live cells immobilized). It is filed as binding. Particulars: purified antibody; A405; FIG. 2. As to the method: In order to detect antibodies actually capable of binding to an infectious Staphylococcus capable of growth, the binding of the anti-Staphylococcus antibodies was measured using Staphylococcus aureus solid phase Cell-ELISA in which live cells were immobilized onto a solid phase.
A protein A knock-out OS2 strain was grown in stationary culture for 16 hours at 30° C. in TSB, collected by centrifugation, washed three times using Dulbecco's phosphate buffered saline (-) (hereinafter “PBS”), and adjusted to a concentration of about A600=0.1.
This was dispensed at 100 μL for each well of a 96-well ELISA plate (Nunc, Maxisorp), and the well was left standing for 6 hours at 4° C. to coat the cells. After washing three times with PBS, 300 μL of 1% rabbit serum/PBS was added to each well, and the well was left standing for 16 hours at 4° C. to perform blocking. Furthermore, after washing three times with 0.05% Tween 20/PBS, 100 μL/well of an immunized mouse serum or hybridoma culture supernatant was added to each well, and the well was left standing for 2 hours at 30° C. After washing three times with 0.05% Tween 20/PBS again, 100 μL/well of a goat HRP-labelled F(ab′)2 anti-mouse IgG+IgM (BioSource) or a goat HRP-labelled F(ab′)2 anti-mouse IgG (γ) (KPL) was added as the secondary antibody to each well, and the well was left standing for 2 hours at 30° C. After washing three times with 0.05% Tween 20/PBS, 100 μL/well of ABTS was added to each well as the substrate to allow color to develop, and photometry at A405 was performed using a microplate reader to measure the amount of anti-Staphylococcus antibodies.
The binding affinity between an anti-Staphylococcus antibody and a Staphylococcus was examined by ELTSA reactivity.
A general note: ELISA stands for enzyme-linked immunosorbent assay.

Take `CN[C@H](CC(C)C)C(=O)N[C@H]1C(=O)N[C@@H](CC(N)=O)C(=O)N[C@H]2C(=O)N[C@H]3C(=O)N[C@H](C(=O)N[C@H](C(=O)O)c4cc(O)cc(O)c4-c4cc3ccc4O)[C@H](O)c3ccc(c(Cl)c3)Oc3cc2cc(c3O[C@@H]2O[C@H](CO)[C@@H](O)[C@H](O)[C@H]2O[C@H]2C[C@](C)(N)[C@H](O)[C@H](C)O2)Oc2ccc(cc2Cl)[C@H]1O` [VCM, vancomycin hydrochloride, reference compound]: the “number of lung infecting bacteria (therapeutic)” value (“number … (therapeutic)” below) in assay [1] is on record as “significantly reduced numbers of lung infecting bacteria”.

B1: ZBIA3H: antibody produced by hybridoma NITE BP-1366; heavy and light chain variable regions SEQ ID NOs: 15 and 16 (antibody, listed as Mus musculus, V domains shown)
VH: EVQLVESGGGLVQPKGSLKLSCAASGFTFNTYAMNWVRQAPGKGLEWVARIRSKSNNYATYYADSVKDRFTISRDDSQSMLYLQMNSLKTEDTAMYYCVRRGGNAIYYAMDYWGQGTSVTVSS
VL: QIVLTQSPAIMSASPGEKVTMTCSANSSVSYMHWYQQKSGTSPKAWIYDTSKLASGVPARFSGSGSGTSYSLTISSMEAEDAATYYCQQWSSNPPTFGSGTKLEIK
B1: the “life-prolonging effect (number of surviving mice)” value in assay [2] and in assay [4] was “significant life-prolonging effects” each time. The “number of lung infecting bacteria (preventive)” value in assay [3] is reported as “significantly reduced numbers of lung infecting bacteria”. In addition, the “number … (therapeutic)” value in assay [1] was “significantly reduced numbers of lung infecting bacteria”. Also, the “binding affinity to Staphylococcus aureus (ELISA reactivity, grouped by added concentration and reactivity)” value (“binding affinity” below) in assay [5] is “moderate level of binding affinity”.

B2: ZBIA5H: antibody produced by hybridoma NITE BP-1367; heavy and light chain variable regions SEQ ID NOs: 7 and 8 (antibody, listed as Mus musculus, V domains shown)
VH: QIQLVQSGPELKKPGETVKISCKASGYTFTDYSMHWVKQAPGKGLKWMGWINTETGEPTYADDFKGRFAFSLETSASTAYLQINNLKNEDTATYFCARPYYAMDYWGQGTSVTVSS
VL: DIQMTQSPSSLSASLGGKVTITCKASQDINKYIAWYQHKPGKGPRLLIHYTSTLQPGIPSRFSGSGSGRDYSFSISNLEPEDIATYYCLQYDNLLPWTFGGGTKLEIK
Regarding B2, the “life-prolonging effect (number of surviving mice)” value in assay [2] and in assay [4] was “significant life-prolonging effects” throughout. Also, the “number of lung infecting bacteria (preventive)” value in assay [3] is “significantly reduced numbers of lung infecting bacteria”. Further, the “number … (therapeutic)” value in assay [1] is on record as “significantly reduced numbers of lung infecting bacteria”. Further, the “binding affinity” value in assay [5] was “moderate level of binding affinity”.

B3: ZBIA9H: anti-Staphylococcus monoclonal antibody; CDRs SEQ ID NOs: 17-22, variable regions SEQ ID NOs: 23 and 24 (antibody, listed as Mus musculus, V domains shown)
VH: EVQLVESGGGLVQPKGSLKLSCAASGFTFNTYAMNWVRQAPGKGLEWVARIRSKSNNYATYYADSVKDRFTIFRDDSQSILYLQLNNLKTEDTAMYYCVRRGGNPYYAMDYWGQGTSVTVSS
VL: QIVLSQSPAILSASPGEKVTMTCRASSSVSYMHWYQQKPGSSPKPWIYATSNLASGVPGRFSGSGSGTSYSLTISRVEAEDAATYYCQQWSSNPPTFGGGTKLEIK
On to B3, for which, in assay [5], the “binding affinity” value is “moderate level of binding affinity”.
